# Positions count from the first letter of the chain named. Primed or numbered codes have the meaning given here. No end group written: not given here. FITC′ = fluorescein isothiocyanate label
# B1: MBP-fused PB1-ZZ of p62 (residues 1-181) wild type (domain or fragment)
# chain: not shown
# notes: p62/SQSTM1, human, PB1-ZZ residues 1-181; Oligomeric state depends on pH (hexameric or higher at pH 8.0, polymer at pH 6.0, about a trimer at pH 4.5); also called MBP-PB1-ZZ WT; PB1-ZZ WT
# B2: MBP-PB1-ZZ K7A (domain or fragment)
# chain: not shown
# notes: p62/SQSTM1, human, PB1-ZZ residues 1-181; also called monomeric PB1-ZZ mutant
# B3: MBP-PB1-ZZ N132L (domain or fragment)
# chain: not shown
# notes: p62/SQSTM1, human, PB1-ZZ residues 1-181
# B4: MBP-PB1-ZZ D129N (domain or fragment, human, UniProt Q13501 1-181, looked up)
# chain: MASLTVKAYLLGKEDAAREIRRFSFCCSPEPEAEAEAAAGPGPCERLLSRVAALFPALRPGGFQAHYRDEDGDLVAFSSDEELTMAMSYVKDDIFRIYIKEKKECRRDHRPPCAQEAPRNMVHPNVICNGCNGPVVGTRYKCSVCPDYDLCSVCEGKGLHRGHTKLAFPSPFGHLSEGFSH
# notes: as for B3
# B5: MBP-PB1-ZZ D147R (domain or fragment, human, UniProt Q13501 1-181, looked up)
# chain: B4 chain with N129D, D147R
# notes: as for B3
# B6: MBP-PB1-ZZ D69A (domain or fragment)
# chain: not shown
# notes: as for B2
# B7: MBP-PB1-ZZ D149R (domain or fragment, human, UniProt Q13501 1-181, looked up)
# chain: B4 chain with N129D, D149R
# notes: as for B3
# B8: Flag-ZZ (ZZ-domain of p62 with the flag-tag) (domain or fragment)
# chain: not shown
# Assays:
# [1] = target: the molecule itself; assay: SEC-MALS; 50 mM Tris pH 8.0, 100 mM NaCl, 1 mM TCEP; 1-3 mg/ml injected; Superdex 200 Increase or Superose 6 Increase
# [2] = target: the molecule itself; assay: SEC-MALS; physiological pH 7.4; buffer not stated
# [3] = target: the molecule itself; assay: SEC-MALS; 50 mM sodium acetate pH 4.5, 100 mM NaCl, 1 mM TCEP
# [4] = target: T1, R-BiP peptide (REEEDK–FITC); assay: fluorescence polarisation; FITC-labeled peptide 100 nM, p62 construct titrated 400 nM to 3 mM; 50 mM Tris pH 8.0, 100 mM NaCl, 1 mM DTT; 384-well; conditions: both partners purified
# T1 construct: Arg attached to the new N-terminus of cleaved BiP (N-terminal arginylation, R*); BiP/GRP78 from E19 (E19b-E20b-E21b-D22b printed); also called FITC-labeled R-BiP peptide; FITC-labeled R-BiP/GRP78 peptide
# T1 peptide: REEEDK-{FITC′}
binder,measurement,setting,value
B1,stoichiometry N,[1],≥ 6
same,stoichiometry N,[2],≥ 10
same,stoichiometry N,[3],~3
B2,fold higher affinity of PB1-ZZ WT than of this mutant,[4],> 10 fold
B3,fold reduction of affinity against WT,[4],~30 fold
B4,fold reduction of affinity against WT,[4],~30 fold
B5,fold reduction of affinity against WT,[4],~30 fold
B6,fold higher affinity of PB1-ZZ WT than of this mutant,[4],> 10 fold
B7,fold reduction of affinity against WT,[4],~30 fold
B8,Kd,[4],> 800 µM

# — PMC6098011, “Insights into degradation mechanism of N-end rule substrates by p62/SQSTM1 autophagy adapter” (Nature Communications, 2018)
